Measurements reported in patent US10869932B2, “Compositions and methods for modifying the surface of cells and methods of use” (UNIVERSITY OF UTAH RESEARCH FOUNDATION, priority 2014, dated 2020).

Target: SDF-1 (Homo sapiens, UniProt P48061)
Test: SDF-1 binding to rCXCR4 on the surface of MSCs
Format: cell-based
Conditions: FITC-SDF-1, 30 minutes at 4° C.
Protocol: FITC-labeled rSDF-1 (FITC-SDF-1) and rhodamine-labeled rCXCR4 (Rho-CXCR4) were prepared according to the manufacturer's protocol. MSCs were then modified with DMPE-PEG-Rho-CXCR4 or DMPE-PEG-CXCR4. Modified MSCs and non-modified MSCs were incubated with FITC-SDF-1 for 30 minutes of incubation at 4° C. under gentle shaking. […] In order to avoid unknown effects of rhodamine on the interaction between SDF-1 and CXCR4, FITC-SDF-1 was added to MSCs modified with DMPE-PEG-CXCR4. […] Weak SDF-1 intensity was detected on the surface of the non-modified MSCs (see FIG. 12; Control+FITC-SDF-1).
Additional evidence of SDF-1 binding to CXCR4 with CXCR4 detection on the surface of the MSC was achieved by the same methods as employed in the previous experiment. MSCs were modified with DMPE-PEG-CXCR4 and the modified MSCs were incubated with FITC-SDF-1.

Sequence of SDF-1 (P48061 22-93, species assumed): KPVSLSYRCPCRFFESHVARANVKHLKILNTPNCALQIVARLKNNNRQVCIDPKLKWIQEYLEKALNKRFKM

- SDF-1 binding on the surface of modified MSCs (confocal): FITC-SDF-1 was co-localized with CXCR4
Substance: DMPE-PEG-Rho-CXCR4: DMPE-PEG conjugated with rhodamine-labeled rCXCR4
